B1: SpLsm5/6/7 sub-complex (trimeric complex of SpLsm5, SpLsm6 and SpLsm7) (complex)
chain 1: not shown
chain 2: MDSSPNEFLNKVIGKKVLIRLSSGVDYKGILSCLDGYMNLALERTEEYVNGKKTNVYGDAFIRGNNVLYVSALDD
chain 3: MSSLQKRPGPGNSSQPTERPRKESILDLSRYQDQRIQATFTGGRQITGILKGFDQLMNLVLDDVEEQLRNPEDGKLTGAIRKLGLVVVRGTTLVLIAPMDGSEEIPNPFVQAE
modifications: SeMet-substituted in the crystal | SeMet-substituted in the crystal | SeMet-substituted in the crystal
notes: Lsm5 (Sm-like protein 5), S. pombe, full length; Lsm6 (Sm-like protein 6), S. pombe, full length; Lsm7 (Sm-like protein 7), S. pombe, full length; One copy of each subunit (printed mass of this unit 31240 Da); two such trimers form the hexameric ring; source: E. coli B834 (DE3), co-expressed (pETDuet-1 and pACYCDuet-1), purified (TALON Co2+, Superdex-200); copies: 1 + 1 + 1
B2: SpLsm3 (Lsm3 from S. pombe, expressed alone) (natural protein)
chain: not shown
notes: Lsm3 (Sm-like protein 3), S. pombe, full length; modified pETDuet-1 MCS1 with N-terminal His6-tag followed by a PreScission site; printed monomer mass 11087 Da; source: E. coli B834 (DE3), purified (TALON Co2+, PreScission cleavage, second TALON, Superdex-200); not shown: His6, N-terminal, cleaved
B3: ScLsm3 (Lsm3 from S. cerevisiae) (natural protein)
chain: METPLDLLKLNLDERVYIKLRGARTLVGTLQAFDSHCNIVLSDAVETIYQLNNEELSESERRCEMVFIRGDTVTLISTPSEDDDGAVEI
notes: Lsm3 (Sm-like protein 3), Saccharomyces cerevisiae; the Lsm3 gene amplified from genomic DNA; printed monomer mass 10450 Da; source: E. coli B834 (DE3), purified (TALON Co2+, PreScission cleavage, second TALON, Superdex-200); not shown: His6, N-terminal, cleaved
B4: SpLsm4N (C-terminal truncated Lsm4 from S. pombe, residues 1-91) (domain or fragment, UniProt O14352 1-91, looked up)
chain: MLPLTLLNATQGRPILVELKNGETFNGHLENCDNYMNLTLREVIRTMPDGDKFFRLPECYIRGNNIKYLRIQDEVLSQVAKQQAQQRENRG
modifications: SeMet-substituted in the crystal
notes: Lsm4 (Sm-like protein 4), S. pombe, residues 1-91; printed monomer mass 12204 Da; No cleavage of the His6 tag is told for this construct; The model covers residues 12-71; also called N-terminal region of Lsm4; source: E. coli B834 (DE3), purified (TALON Co2+, Superdex-75)
B5: SpLsm3 from the co-expressed SpLsm2/3 sample (natural protein)
chain: not shown
modifications: SeMet-substituted in the crystal
notes: Lsm3 (Sm-like protein 3), S. pombe, full length; inserted into MCS2 of pETDuet-1, no tag told; The SpLsm3 crystals grew from the SeMet-SpLsm2/3 sample; Residues 1-8 and 56-69 are disordered in the model; also called SeMet-SpLsm3; source: E. coli B834 (DE3), co-expressed with His6-SpLsm2 (pETDuet-1 MCS2), purified (TALON Co2+, Superdex-200)

What was measured:
[1] = target: the molecule itself; assay: AUC; sedimentation velocity, 42000 r.p.m., 20°C, 20 mM Hepes pH 7.5, 100 mM NaCl; 0.75, 1.0 and 1.5 mg/ml; c(S) and c(M) distributions (SEDFIT)
[2] = target: the molecule itself; assay: AUC; sedimentation equilibrium, 20°C, 20 mM Hepes pH 7.5, 500 mM NaCl; 15,000, 18,000, 25,000 rpm; 0.3-1.5 mg/ml; fitted to a monomer-trimer model (HETEROANALYSIS); monomer to trimer
[3] = target: the molecule itself; assay: crystal structure; SeMet crystals grown from the SeMet-SpLsm2/3 sample; hanging drop, 15°C, 0.1 M Mes pH 6.5, 0.2 M MgCl2, 40% MPD; 2.7 Å, SAD; only SpLsm3 in the crystal

Protein | stoichiometry N [1] | also measured
B1 | 2 | –
B2 | 7 | –
B3 | 8 | –
B4 | – | stoichiometry N [2]: 3
B5 | – | stoichiometry N [3]: 7

Source: paper PMC3355152, “Crystal Structures of Lsm3, Lsm4 and Lsm5/6/7 from Schizosaccharomyces pombe” (PLoS ONE, 2012)
